The results in this text go back to paper PMC3807529 (Biochemistry, 2013).

Assay [1] deals with T1, ataxin-3 fragment containing all three UIM sequences (residues 194-361, UIM_123) (human, UniProt P54252 194-361). Nature of the assay: NMR titration.
Assay [2] concerns the target T1, ataxin-3 fragment containing all three …. Put plainly: NMR titration. This is another data set of the same source.

T1 sequence (P54252 194-361): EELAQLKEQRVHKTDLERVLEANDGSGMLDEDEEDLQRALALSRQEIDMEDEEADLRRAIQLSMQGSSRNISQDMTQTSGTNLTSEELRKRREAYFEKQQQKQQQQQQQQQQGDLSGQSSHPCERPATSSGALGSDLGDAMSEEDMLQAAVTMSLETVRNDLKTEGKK

B1: human parkin ubiquitin-like domain (residues 1-77) (domain or fragment, UniProt O60260 1-77, looked up)
chain: MIVFVRFNSSHGFPVEVDSDTSIFQLKEVVAKRQGVPADQLRVIFAGKELRNDWTVQNCDLDQQSIVHIVQRPWRKG
Turning to B1, in assay [1], the “KD of each individual UIM (UIM1, UIM2, UIM3) in UIM_123” value is > 1000 µM. Further, the Kd in assay [2] amounted to 236 ± 14 µM.
